B1: HDV Ribozyme (parent)
chain: GGCCGGCAUGGUCCCAGCCUCCUCGCUGGCGCCGGCUGGGCAACAUUCCGAGGGGACCGUCCCCUCGGUAAUGGCGAAUGGGACCCA

Variants of: B1
Assay: self-cleavage, relative activity (ratio to wild type); higher = more cleavage; co-transcriptional

Compared with C44G U69A, C44G U69C is higher in self-cleavage: 0.657 for the first, 0.776 for the second.

Compared with A43U C63A, A42G G54U is lower in self-cleavage: 0.716 for the first, 0.502 for the second.

Going from A45C G54A to A43C U60G, the self-cleavage rises from 0.597 to 0.68.

Compared with A43C U60A, A43U G53C is higher in self-cleavage: 0.249 for the first, 0.508 for the second.

First: C44U A70U
Second: C44U A70G
The self-cleavage of the first is higher: 0.955 for the first, 0.793 for the second.

Going from A43G C84A to A43G C84G, the self-cleavage falls from 0.712 to 0.201.

Going from A45C A51G to A42U U46A, the self-cleavage falls from 0.587 to 0.443.

Compared with A42U C64G, A42U C62U is higher in self-cleavage: 0.574 for the first, 0.742 for the second.

Going from C44U G53A to A43C G68A, the self-cleavage falls from 0.709 to 0.268.

Going from A42G A87G to A42U A71U, the self-cleavage falls from 0.602 to 0.369.

First: A45C C63G
Second: A45C C63U
The self-cleavage of the first is lower: 0.427 for the first, 0.727 for the second.

First: A45C C63A
Second: C41U U79C
The self-cleavage of the first is higher: 0.748 for the first, 0.332 for the second.

Going from A42C A51U to A42C A51G, the self-cleavage falls from 0.369 to 0.26.

Compared with A45C C86U, A43C A56C is lower in self-cleavage: 0.779 for the first, 0.59 for the second.

Compared with A43U A56G, A45C G55A is lower in self-cleavage: 0.665 for the first, 0.554 for the second.

Compared with A45C G55U, C44G C86U is higher in self-cleavage: 0.525 for the first, 0.897 for the second.

Compared with A42G C66A, A42G C66G is lower in self-cleavage: 0.702 for the first, 0.538 for the second.

Going from C44U C84A to A43G U65A, the self-cleavage falls from 0.614 to 0.554.

First: A43G C63A
Second: A43G C63G
The self-cleavage of the first is higher: 0.642 for the first, 0.604 for the second.

First: A43U G54A
Second: A43G C64A
The self-cleavage of the first is lower: 0.487 for the first, 0.612 for the second.

Going from C44G A71G to A43C C57U, the self-cleavage falls from 0.646 to 0.491.

Going from A43C C57G to C41U C84G, the self-cleavage falls from 0.655 to 0.589.

Compared with A42C G67U, A43C U72C is higher in self-cleavage: 0.261 for the first, 0.578 for the second.

Compared with C44G G73U, C44A G76A is higher in self-cleavage: 0.397 for the first, 0.873 for the second.

Going from C44G A87U to A43U G55C, the self-cleavage falls from 0.675 to 0.399.

Going from A43U G55A to C44G C64A, the self-cleavage rises from 0.537 to 0.745.

Compared with A45C C66G, A43C G54U is lower in self-cleavage: 0.587 for the first, 0.374 for the second.

First: C44A G55C
Second: A43C G59A
The self-cleavage of the first is higher: 0.831 for the first, 0.441 for the second.

Compared with A43C U46C, A43C U46A is higher in self-cleavage: 0.435 for the first, 0.877 for the second.

Going from A42U A56U to A42U A56C, the self-cleavage rises from 0.577 to 0.629.

Going from C44A U69G to A43U G59U, the self-cleavage rises from 0.609 to 0.783.

First: A42C U65C
Second: A42G G74A
The self-cleavage of the first is higher: 0.268 for the first, 0.0396 for the second.

Going from C44G G80A to A43G C44G, the self-cleavage rises from 0.223 to 0.798.

Compared with A43G C44U, A42G C44A is lower in self-cleavage: 0.884 for the first, 0.536 for the second.

First: A43U C66U
Second: C44A G74U
The self-cleavage of the first is lower: 0.575 for the first, 0.702 for the second.

Going from A43C G50C to A42U C44U, the self-cleavage rises from 0.284 to 0.674.

Going from C44U A45G to A42G C75U, the self-cleavage falls from 0.739 to 0.397.

First: A43G C62U
Second: A43G C62G
The self-cleavage of the first is higher: 0.646 for the first, 0.415 for the second.

Compared with C44A U72G, A42G C48G is higher in self-cleavage: 0.431 for the first, 0.791 for the second.

Compared with A42G C48A, A43C C44A is lower in self-cleavage: 0.7 for the first, 0.665 for the second.

First: A43G C85A
Second: A43G C85U
The self-cleavage of the first is lower: 0.44 for the first, 0.446 for the second.

Compared with C44G G82U, C44U G52U is higher in self-cleavage: 0.232 for the first, 0.82 for the second.

First: A42U C84U
Second: A42U C84A
The self-cleavage of the first is lower: 0.181 for the first, 0.655 for the second.

Going from A43G G54U to A43G G54C, the self-cleavage falls from 0.514 to 0.511.

Going from A43G C58G to A43G C58A, the self-cleavage falls from 0.72 to 0.629.

Compared with A43C C48A, C44G G53A is higher in self-cleavage: 0.386 for the first, 0.665 for the second.

First: C41U C86U
Second: A43U C57U
The self-cleavage of the first is higher: 0.967 for the first, 0.631 for the second.

Going from A43C A71C to A43C A71U, the self-cleavage falls from 0.534 to 0.322.

Going from A42C A87U to A43U C61U, the self-cleavage rises from 0.283 to 0.302.

First: C44U A78G
Second: A42C G52U
The self-cleavage of the first is lower: 0.242 for the first, 0.282 for the second.

First: A45C C57G
Second: A42C C66A
The self-cleavage of the first is higher: 0.851 for the first, 0.332 for the second.

Compared with C44G C61A, C44G C61U is lower in self-cleavage: 0.724 for the first, 0.378 for the second.

Compared with A45C A83G, C44A A87U is higher in self-cleavage: 0.23 for the first, 0.686 for the second.

First: A42G A78C
Second: A42G G80C
The self-cleavage of the first is lower: 0.107 for the first, 0.364 for the second.

Going from A43U G82A to A43U G50A, the self-cleavage rises from 0.0811 to 0.47.

First: A42U G67C
Second: A42U G67U
The self-cleavage of the first is higher: 0.415 for the first, 0.346 for the second.

First: A42U G67A
Second: A42G C85G
The self-cleavage of the first is lower: 0.47 for the first, 0.522 for the second.

Compared with C44U C85U, C44U C85A is lower in self-cleavage: 0.954 for the first, 0.814 for the second.

Going from C41U U47C to C41U U47G, the self-cleavage rises from 0.799 to 0.95.

Going from C44G A83G to A42C G73C, the self-cleavage falls from 0.233 to 0.119.

Going from A43G A45G to C44U U47C, the self-cleavage falls from 0.554 to 0.54.

Going from C44U U47G to A43C G82C, the self-cleavage falls from 0.677 to 0.

Compared with C44G C48G, C44U C75A is lower in self-cleavage: 0.575 for the first, 0.108 for the second.

First: A42U C57A
Second: A42U G81U
The self-cleavage of the first is higher: 0.575 for the first, 0.145 for the second.

Going from A43G U72C to A42G G82A, the self-cleavage falls from 0.434 to 0.158.

Going from C41U C63U to A42C C86G, the self-cleavage falls from 1.12 to 0.353.

First: A42C C86A
Second: A42C C86U
The self-cleavage of the first is higher: 0.312 for the first, 0.178 for the second.

Compared with C44U A56C, C44U A56G is lower in self-cleavage: 1.04 for the first, 0.939 for the second.

Going from C41U C64G to C41U C64A, the self-cleavage rises from 0.635 to 0.906.

Going from C41U C64U to A42U U65A, the self-cleavage falls from 0.892 to 0.434.

Going from A43C A70U to A42G A70G, the self-cleavage rises from 0.322 to 0.623.

Compared with A42G A70C, C44A A83G is lower in self-cleavage: 0.798 for the first, 0.443 for the second.

Going from A42C A56G to C44A C64U, the self-cleavage rises from 0.415 to 0.665.

Going from A42U U47C to A42U U47A, the self-cleavage falls from 0.394 to 0.302.

Going from A42G G53C to A42G A45C, the self-cleavage rises from 0.391 to 0.399.

First: A43C G73A
Second: A42C C49G
The self-cleavage of the first is higher: 0.407 for the first, 0.178 for the second.

Compared with A45C C61U, A45C C61A is lower in self-cleavage: 0.796 for the first, 0.671 for the second.

Going from A43U U79C to A42G U46A, the self-cleavage rises from 0.127 to 0.554.

Compared with C44U C86G, C44U G82A is lower in self-cleavage: 0.928 for the first, 0.363 for the second.

First: C44U G82U
Second: C44U C58G
The self-cleavage of the first is lower: 0.282 for the first, 0.712 for the second.

First: A43C U69C
Second: C44A G50C
The self-cleavage of the first is lower: 0.582 for the first, 0.702 for the second.

Going from A42G C57A to A45C A87C, the self-cleavage rises from 0.527 to 0.554.

Going from C44U U72A to C44U G67U, the self-cleavage falls from 0.678 to 0.499.

In the case of C41U U60C, the self-cleavage is reported as 0.906.
